The Immune Epitope Database (IEDB)

Legend:
HLA-B*18:01 = test: IEDB peptide-MHC binding, purified MHC/competitive/radioactivity; filed as Kd, often an IC50 or EC50 that approximates it; ≥ and ≤ were set here for values at or beyond the usual limits of such assays
HLA-B*44:03 = test: as above
HLA-B*40:01 [1] = test: as above
HLA-B*45:01 = test: as above
HLA-B*44:02 [2] = test: as above
HLA-B*40:02 = test: as above
HLA-A*03:01 [3] = test: IEDB peptide-MHC binding, purified MHC/competitive/fluorescence; filed as Kd, often an IC50 or EC50 that approximates it; ≥ and ≤ were set here for values at or beyond the usual limits of such assays; conditions: source organism: Giardia lamblia ATCC 50803
HLA-B*08:02 = test: IEDB peptide-MHC binding, purified MHC/direct/fluorescence; filed as Kd, often an IC50 or EC50 that approximates it; ≥ and ≤ were set here for values at or beyond the usual limits of such assays; conditions: source organism: Influenza A virus(A/swine/Shandong/fZC/2003(H9N2))
HLA-B*08:01 = test: as above; conditions: source organism: Influenza A virus (A/tiger/Thailand/CU-T6/04(H5N1))
HLA-B*07:02 = test: as above; conditions: source organism: Influenza A virus (A/tiger/Thailand/CU-T6/04(H5N1))
HLA-A*69:01 = test: as above; conditions: source organism: Influenza A virus (A/tiger/Thailand/CU-T6/04(H5N1))
HLA-A*26:01 = test: as above; conditions: source organism: Influenza A virus(A/swine/Shandong/fZC/2003(H9N2))
HLA-A*01:01 = test: as above; conditions: source organism: Influenza A virus (A/tiger/Thailand/CU-T6/04(H5N1))
HLA-B*15:01 = test: as above; conditions: source organism: Influenza A virus (A/tiger/Thailand/CU-T6/04(H5N1))
HLA-B*46:01 = test: as above; conditions: source organism: Influenza A virus (A/tiger/Thailand/CU-T6/04(H5N1))
HLA-A*24:03 = test: as above; conditions: source organism: Influenza A virus (A/tiger/Thailand/CU-T6/04(H5N1))
HLA-A*02:01 = test: as above; conditions: source organism: Influenza A virus (A/tiger/Thailand/CU-T6/04(H5N1))
HLA-A*03:01 [4] = test: as above; conditions: source organism: Influenza A virus (A/tiger/Thailand/CU-T6/04(H5N1))
HLA-B*40:01 [5] = test: as above; conditions: source organism: Influenza A virus (A/tiger/Thailand/CU-T6/04(H5N1))
HLA-A*11:01 = test: as above; conditions: source organism: Influenza A virus (A/tiger/Thailand/CU-T6/04(H5N1))
HLA-B*27:05 = test: as above; conditions: source organism: Influenza A virus (A/tiger/Thailand/CU-T6/04(H5N1))
HLA-A*31:01 = test: as above; conditions: source organism: Influenza A virus (A/tiger/Thailand/CU-T6/04(H5N1))
HLA-B*58:01 = test: as above; conditions: source organism: Influenza A virus (A/tiger/Thailand/CU-T6/04(H5N1))
HLA-B*44:02 [6] = test: as above; conditions: source organism: Influenza A virus (A/tiger/Thailand/CU-T6/04(H5N1))
HLA-A*24:02 = test: IEDB peptide-MHC binding, purified MHC/competitive/fluorescence; ≥ and ≤ were set here for values at or beyond the usual limits of such assays
[7] = source organism: Lymphocytic choriomeningitis virus (strain Armstrong)
[8] = source organism: Zaire ebolavirus
[9] = source organism: SARS coronavirus Tor2

ADQAIANGV was tested, and the Kd (HLA-B*18:01; [7]) was ≥ 33.8 µM, the Kd (HLA-B*44:03; [7]) was ≥ 30.2 µM and the Kd (HLA-B*40:01 [1]; [7]) was ≥ 73.5 µM. For the same sequence, the Kd (HLA-B*45:01; [7]) was ≥ 20.7 µM, the Kd (HLA-B*44:02 [2]; [7]) was 14.9 µM and the Kd (HLA-B*40:02; [7]) was 3.33 µM.
With KLSSEQLSH the Kd (HLA-A*03:01 [3]) was 0.0594 µM.
In the case of TYQWIIRNW, the Kd (HLA-B*08:02) is reported as ≥ 20 µM, the Kd (HLA-B*08:01) is reported as ≥ 20 µM and the Kd (HLA-B*07:02) is reported as ≥ 20 µM. For the same sequence, the Kd (HLA-A*69:01) was ≥ 20 µM, the Kd (HLA-A*26:01) was ≥ 20 µM and the Kd (HLA-A*01:01) was ≥ 20 µM. For the same sequence, the Kd (HLA-B*15:01) was ≥ 20 µM, the Kd (HLA-B*46:01) was ≥ 20 µM and the Kd (HLA-A*24:03) was 0.0025 µM. For the same sequence, the Kd (HLA-A*02:01) was ≥ 20 µM, the Kd (HLA-A*03:01 [4]) was ≥ 20 µM and the Kd (HLA-B*40:01 [5]) was ≥ 20 µM. The Kd (HLA-A*11:01) was ≥ 20 µM, the Kd (HLA-B*27:05) was ≥ 20 µM and the Kd (HLA-A*31:01) was ≥ 20 µM. The Kd (HLA-B*58:01) was ≥ 10 µM and the Kd (HLA-B*44:02 [6]) was ≥ 20 µM.
For MYRHILRSQ, the IC50 (HLA-A*24:02; [8]) was 56 µM.
QYQQLREAA was tested, and the IC50 (HLA-A*24:02; [8]) was ≥ 73.9 µM.
SGSTSPRML was tested, and the IC50 (HLA-A*24:02; [8]) was ≥ 188 µM.
KEGIVWVAT was tested, and the Kd (HLA-B*18:01; [9]) was ≥ 62.8 µM, the Kd (HLA-B*44:03; [9]) was 12.3 µM and the Kd (HLA-B*40:01 [1]; [9]) was 6.26 µM. For the same sequence, the Kd (HLA-B*45:01; [9]) was 0.0696 µM, the Kd (HLA-B*44:02 [2]; [9]) was ≥ 20 µM and the Kd (HLA-B*40:02; [9]) was 0.0296 µM.
TEFACVVAEA was tested, and the Kd (HLA-B*18:01; [9]) was 0.0608 µM, the Kd (HLA-B*44:03; [9]) was 0.393 µM and the Kd (HLA-B*40:01 [1]; [9]) was 1.51 µM. The Kd (HLA-B*45:01; [9]) was 0.00898 µM, the Kd (HLA-B*44:02 [2]; [9]) was 1.44 µM and the Kd (HLA-B*40:02; [9]) was 0.0146 µM.
Work on MTATLEDDR yielded an IC50 (HLA-A*24:02; source organism: Variola virus) of 14.6 µM.
In the case of AKCIEYVTL, the IC50 (HLA-A*24:02; source organism: Vaccinia virus Copenhagen) is reported as ≥ 172 µM.
